From paper PMC2637153

What was measured:
[1] = biological target: Allochromatium vinosum DsrC Cys100Ser (Allochromatium vinosum); experiment: SEC
[2] = biological target: Allochromatium vinosum DsrC, wild type, recombinant with amino-terminal His tag (Allochromatium vinosum); experiment: SEC

stoichiometry N [1]	stoichiometry N [2]	Substance
2	–	Allochromatium vinosum DsrC Cys100Ser (natural protein)
–	2	Allochromatium vinosum DsrC, wild type, recombinant with amino-terminal His tag (natural protein)
